# Laboratory results published in patent US10682427B2, “Intra-operative imaging” (BRACCO IMAGING S.P.A., priority 2014, dated 2020).
# How the values were obtained:
# [1] = Determination of the molar extinction coefficient (UV-VIS absorbance, linear regression); type: physicochemical; details: in PBS
# Protocol: Two standard stock solutions containing the NIR agent in PBS at 1000 μM (sol I: 1.27 mg, 0.884 mL) and 1250 μM (sol II: 7.03 mg, 3.915 mL) were prepared. Diluted standard solutions were then prepared as reported in Table A by diluting the stock solutions in an appropriate volumetric flask using PBS. The absorbance of each standard diluted solution was measured without any further dilution.
# The absorbance of each diluted standard solutions was measured and the molar extinction coefficient of DA364 was calculated from the slope of the linear regression reported in FIG. 1. The measured extinction coefficient in this condition was 208500 M^−1·cm^−1 (corresponding to 83% of the theoretical value reported for Cy5.5 dye: 250000 M^−1·cm^−1).
# [2] = system: A431 tumor; assay: In vivo and ex vivo fluorescence imaging of tumor uptake (IVIS Spectrum); parameters: species or system mice
# Protocol: (§1) A431 cells were collected and washed two times with PBS. Five million cells were resuspended in 0.1 mL of DMEM high glucose medium and subcutaneously injected in the right flank of all mice. Eleven days after A431 inoculation, U-87MG cells were collected and washed two times with PBS. Two million cells were resuspended in 0.1 mL of EMEM medium and subcutaneously injected in the left flank of same animals previously injected with A431 cells.
# (§2) Three weeks after A431 tumor implantation five mice were administered with 1 nmol of DA364 for a total administration volume of 0.2 mL (inj. rate 1 mL/min). In vivo OI acquisitions have been carried out 5 min, 15 min, 30 min, 1 h, 2 h, 3 h, 4 h, 6 h, 24 h and 48 hours after intravenous administration of the fluorescent probe using the IVIS Spectrum optical imaging system (Perkin Elmer). During OI experiments animals were kept under 3-4% Sevofluorane gas anaesthesia (O2 97.0-96.0%). During anaesthesia animals body temperature has been stabilized at about 37° C. using a heated bed.
# (§3) Following in vivo OI experiments, 48 hours after probes injection, animals were sacrificed. Tumors, liver, kidneys, heart and spleen were excised for ex vivo fluorescent signal measure on the whole excised tumor or organ.
# (§4) Fluorescence intensity from U-87 MG and A431 tumors was measured in vivo together with the signal coming from the normal healthy tissues (background).
# (§5) The fluorescent signal (expressed as Radiant Efficiency (RE): p/s/(μW/cm^2), where p is the photon count), was then measured on the excised ex vivo samples using the IVIS Spectrum optical imaging system (Perkin Elmer).
# [3] = system: U-87MG tumor; assay: as above; parameters: species or system mice
# Protocol: as §1, §2, §3, §4, §5
# [4] = Ex vivo fluorescent signal in excised organs (IVIS Spectrum); parameters: species or system mice; details: 48 hours after 1 nmol i.v.
# Protocol: as §2, §3, §5
# [5] = Normalized excitation and emission spectra; type: physicochemical
# From the text: The normalized excitation and emission spectra of the NIR agent in PBS (ex/em: 674/694; Stokes Shift: 20 nm) and in SERONORM (human-based control serum) (694/704, Stokes Shift 10 nm) are shown in FIG. 2. As shown in the figure, the interaction of the DA364 contrast agent with serum albumin promotes the shift of the emission maximum from 694 nm to 704 nm (in PBS and in SERONORM (human-based control serum) respectively) and also the reduction of the Stokes shift.
# [6] = ex vivo, 48 hours after 1 nmol i.v.
# [7] = SERONORM (human-based control serum)
structure (smiles),measurement,setting,value
CC[N+]1=C(/C=C/C=C/C=C2/N(CCCCCC(=O)NC[C@@H]3C[C@@H]4CC[C@H]5C(=O)N[C@@H](CCCNC(=N)N)C(=O)NCC(=O)N[C@@H](CC(=O)O)C(=O)N[C@H]3C(=O)N45)c3ccc4c(S(=O)(=O)O)cc(S(=O)(=O)O)cc4c3C2(C)C)C(C)(C)c2c1ccc1c(S(=O)(=O)[O-])cc(S(=O)(=O)O)cc21 [DA364],extinction coefficient as percent of the theoretical value reported for Cy5.5 dye,[1],83%
same,molar extinction coefficient,[1],208500 M⁻¹ cm⁻¹
same,tumor signal ratio with respect to the background,"[2]; A431 tumor in vivo, 3 hours to 24 hours after injection",stable signal ratio
same,fluorescence intensity in A431 tumors relative to heart and spleen (background),[2]; [6],about 10 times
same,fluorescence intensity in A431 tumors relative to liver and kidney,[2]; [6],comparable
same,Fluorescence Signal (Radiant Efficiency),"[2]; excised A431 tumor ex vivo, 48 hours after 1 nmol i.v.",3.47E+08 p/s/(μW/cm^2)
same,visualization of tumor under skin (FIG. 9),"[2]; low-integrin expressing tumor A431, in vivo fluorescence imaging",clear visualization
same,tumor signal ratio with respect to the background,"[3]; U-87 MG tumor in vivo, 3 hours to 24 hours after injection",stable signal ratio
same,fluorescence signal in U-87MG tumor relative to A431 tumor,[3]; [6],about twice
same,Fluorescence Signal (Radiant Efficiency),"[3]; excised U87-MG tumor ex vivo, 48 hours after 1 nmol i.v.",6.78E+08 p/s/(μW/cm^2)
same,Fluorescence Signal (Radiant Efficiency),[4]; excised heart ex vivo,4.61E+07 p/s/(μW/cm^2)
same,Fluorescence Signal (Radiant Efficiency),[4]; excised kidney ex vivo,3.55E+08 p/s/(μW/cm^2)
same,Fluorescence Signal (Radiant Efficiency),[4]; excised liver ex vivo,4.04E+08 p/s/(μW/cm^2)
same,Fluorescence Signal (Radiant Efficiency),[4]; excised spleen ex vivo,5.79E+07 p/s/(μW/cm^2)
same,Stokes Shift,[5]; PBS,20 nm
same,emission maximum (em),[5]; PBS,694 nm
same,excitation maximum (ex),[5]; PBS,674 nm
same,Stokes Shift,[5]; [7],10 nm
same,emission maximum (em),[5]; [7],704 nm
same,excitation maximum (ex),[5]; [7],694 nm
